Test results taken from patent publication US20030027180, “Nucleic acid shuffling” (published 2003).

Columns and labels:
streptavidin [1] = molecular target: T1, streptavidin (UniProt P22629 P22629:25-183); assay: filter; no streptavidin affinity; details: tags: Sigma; chain copies: 4
Procedure: (§1) Binding affinity assays: Affinities for streptavidin were measured using a radioactive filter binding assay. Pools or individual clones were amplified by PCR. One pmol was radiolabeled with 15 units T4 PNK and 10 μCi γ-³²P ATP (NEN) in T4 PNK buffer at 37° C., 1 h. Labeled DNA was extracted twice with phenol-chloroform and purified twice by gel filtration to remove ATP. The DNA was then denatured in water at 95° C. for 5 min together with 2 μg human genomic DNA (to block nonspecific DNA binding) per 5 fmol labeled DNA, and chilled in ice water for 5 mins. 5 fmol of labeled DNA plus 2 μg unlabeled human genomic DNA was added to varying amounts of streptavidin (0 to 1024 nM) in 50 μL of 100 mM NaCl, 50 mM Tris-Cl pH 8.0, 5 mM MgCl₂ (“assay buffer”), giving a final concentration of labeled DNA of 0.1 nM. The DNA and streptavidin were incubated at room temperature for 30 minutes. A multiscreen-HA 96 well nitrocellulose filter plate (Millipore), which retains protein-DNA complexes much better than free DNA, was pre-washed with 125 μL assay buffer then loaded with each assay sample. The samples were rapidly filtered on a vacuum manifold and the membranes washed twice with 250 uL of assay buffer. The membrane for each well was punched out from the plate using a stylus and the bound radioactive label quantitated by phosphorimager together with 1 fmol of unreacted probe.

streptavidin [2] = molecular target: T1, streptavidin; assay: filter; affinity comparable to error-prone PCR evolved sequences; no own Kd printed; details: tags: Sigma; chain copies: 4; stem-loop predicted by Mfold
Procedure: as §1

streptavidin [3] = molecular target: T1, streptavidin; assay: filter; 100 mM NaCl, 50 mM Tris pH 8.0, 5 mM MgCl2, room temperature, human genomic DNA competitor; details: tags: Sigma; chain copies: 4; label: 5'-32P
Procedure: as §1

T1 sequence (P22629 25-183, one chain of several): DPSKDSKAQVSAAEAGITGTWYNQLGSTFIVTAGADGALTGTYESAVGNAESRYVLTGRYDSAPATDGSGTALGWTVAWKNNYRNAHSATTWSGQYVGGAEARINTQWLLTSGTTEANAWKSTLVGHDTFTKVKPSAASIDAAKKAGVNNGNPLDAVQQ

Q: Does CTGTGAGACAAAACCTGCGACCGGTGCGTCGTCTCACAGA (ssDNA) [complement strand of minimal 40-mer] bind (streptavidin [1])?
A: no binding

Q: Does TCTGTGAGACGACGCACCGGTCGCAGGTTTTGTCTCACAG (ssDNA) [minimal 40-mer] bind (streptavidin [2])?
A: binds

B1: 13x16 #1 (ssDNA)
DNA: GAAAACTGCTCATATGATTGATTAGCCCGCTGCTCGTCCAAATGACGGCTCAGCTCTGTATTTTTAGCGTCTGTGAGACAGAACCTGCGACCGGTGCGTCGTCTCACAGTCTACTGTATCTTCGCGTACCTTAGGTTTACCCGCTGCTCGTCCAAATGACGGCTCTCTGTGAGACAAAACCTGCGACCGGTGCGTCGTCTCACAGTAAGAGGGTTCTTGGATA
Q: For B1, which Kd (streptavidin [3]) is on record?
A: 4.7 nM
